The values below come from patent US12251370B2, “Small molecule inhibitors of the BfrB:Bfd interaction” (BOARD OF SUPERVISORS OF LOUISIANA STATE UNIVERSITY AND …, priority 2018, dated 2025).

Several values for one entry are separate records, joined by “and”; a condition that tells them apart may be missing. Equal entries are not always repeated. Where two headings read alike, the source gives them in different places.

Experiment [1] concerns the target T1, BfrB (Pseudomonas aeruginosa, UniProt Q9HY79). As to the kind of experiment: Bfd association with BfrB in solution. The class given is binding. Conditions: apo-BfrB; read-out: Kd, interaction between Bfd and apo-BfrB.
Experiment [2] has as its target T1, BfrB. Conditions: holo-BfrB; previously reported; read-out: Kd, interaction between Bfd and BfrB (holo); cited from earlier work.

T1 sequence (Q9HY79 whole entry): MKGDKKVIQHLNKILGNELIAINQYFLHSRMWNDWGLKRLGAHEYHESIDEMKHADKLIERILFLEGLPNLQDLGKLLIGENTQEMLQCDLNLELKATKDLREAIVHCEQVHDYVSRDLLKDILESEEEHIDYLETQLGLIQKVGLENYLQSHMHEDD

B1: Bfd: bacterioferritin-associated ferredoxin, cognate partner of the iron storage protein BfrB (protein, UniProt Q9HY80 1-73, looked up)
Bacterioferritin-associated …: MYVCLCQGVTDNQIRDAIYEGCCSYREVREATGVGTQCGKCACLAKQVVRETLNDLQSAQPVPAFGTTAFVAA
As usually defined, the Kd is a measure of binding affinity in units of concentration. For B1, the Kd in the experiment with BfrB [1] is 3.1 µM; with BfrB [2], 3.4 µM and 3 µM and ~3 µM.
